According to US20140087995A1 (published 2014):
Numbered stars: 1 amine (or outer) side, 2 acyl side, 3 side chain; on linkers, the order of the positions; unused ones are H or OH. Bridge positions count the residues as written; N and C are the ends. Side chains are listed from the residue outwards. Ends that are not written are not given here. * marks the point of attachment. C20 diacid = O=C(O)CCCCCCCCCCCCCCCCCCC(=O)*; γGlu = O=C(O)[C@H](CCC(=O)[*:2])N[*:1]; AEEA = NCCOCCOCC(=O)O

T1: human calcitonin receptor (human, UniProt P30988 25-474)
T1 construct: whole, on cells; Assayed as cell membranes of BHK tk'ts 13 cells stably transfected with the human calcitonin receptor (Assay VII); also called hCTR; hCT
T1 sequence (looked up): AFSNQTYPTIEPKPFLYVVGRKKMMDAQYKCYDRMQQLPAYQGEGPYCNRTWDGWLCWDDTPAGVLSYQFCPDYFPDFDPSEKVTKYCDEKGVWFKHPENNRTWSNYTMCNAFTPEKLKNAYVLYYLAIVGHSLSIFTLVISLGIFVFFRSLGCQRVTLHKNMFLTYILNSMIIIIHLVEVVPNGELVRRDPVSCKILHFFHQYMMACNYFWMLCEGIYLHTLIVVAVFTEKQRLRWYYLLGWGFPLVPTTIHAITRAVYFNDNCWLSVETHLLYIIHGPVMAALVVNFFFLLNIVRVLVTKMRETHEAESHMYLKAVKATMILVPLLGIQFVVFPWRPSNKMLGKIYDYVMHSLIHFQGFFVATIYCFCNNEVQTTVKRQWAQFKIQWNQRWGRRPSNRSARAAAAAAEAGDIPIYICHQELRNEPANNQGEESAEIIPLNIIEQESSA

B1: N^ε1-[2-[2-[2-[[(4S)-4-carboxy-4-(19-carboxynonadecanoylamino)butanoyl]amino]ethoxy]ethoxy]acetyl]-[Lys14,Arg17,Pro21,Pro27,Pro31]-h-amylin (peptide)
peptide: K([AEEA-γGlu-C20 diacid])CNTATCATQRLAKFLRHSSPNFGAIPSSTPVGSNTY-NH2
modifications: disulfide 2-7; N-terminus assumed
SMILES: CC[C@H](C)[C@H](NC(=O)[C@H](C)NC(=O)CNC(=O)[C@H](Cc1ccccc1)NC(=O)[C@H](CC(N)=O)NC(=O)[C@@H]1CCCN1C(=O)[C@H](CO)NC(=O)[C@H](CO)NC(=O)[C@H](Cc1c[nH]cn1)NC(=O)[C@H](CCCNC(=N)N)NC(=O)[C@H](CC(C)C)NC(=O)[C@H](Cc1ccccc1)NC(=O)[C@H](CCCCN)NC(=O)[C@H](C)NC(=O)[C@H](CC(C)C)NC(=O)[C@H](CCCNC(=N)N)NC(=O)[C@H](CCC(N)=O)NC(=O)[C@@H](NC(=O)[C@H](C)NC(=O)[C@@H]1CSSC[C@H](NC(=O)[C@@H](N)CCCCNC(=O)COCCOCCNC(=O)CC[C@H](NC(=O)CCCCCCCCCCCCCCCCCCC(=O)O)C(=O)O)C(=O)N[C@@H](CC(N)=O)C(=O)N[C@@H]([C@@H](C)O)C(=O)N[C@@H](C)C(=O)N[C@@H]([C@@H](C)O)C(=O)N1)[C@@H](C)O)C(=O)N1CCC[C@H]1C(=O)N[C@@H](CO)C(=O)N[C@@H](CO)C(=O)N[C@H](C(=O)N1CCC[C@H]1C(=O)N[C@H](C(=O)NCC(=O)N[C@@H](CO)C(=O)N[C@@H](CC(N)=O)C(=O)N[C@H](C(=O)N[C@@H](Cc1ccc(O)cc1)C(N)=O)[C@@H](C)O)C(C)C)[C@@H](C)O
notes: also called compound 74
B2: N^ε1-[2-[2-[2-[[(4S)-4-carboxy-4-(19-carboxynonadecanoylamino)butanoyl]amino]ethoxy]ethoxy]acetyl]-[Ser14,Arg17,Pro21,Pro27,Pro31]-h-amylin (peptide)
peptide: K([AEEA-γGlu-C20 diacid])CNTATCATQRLASFLRHSSPNFGAIPSSTPVGSNTY-NH2
modifications: disulfide 2-7; N-terminus assumed
SMILES: CC[C@H](C)[C@H](NC(=O)[C@H](C)NC(=O)CNC(=O)[C@H](Cc1ccccc1)NC(=O)[C@H](CC(N)=O)NC(=O)[C@@H]1CCCN1C(=O)[C@H](CO)NC(=O)[C@H](CO)NC(=O)[C@H](Cc1c[nH]cn1)NC(=O)[C@H](CCCNC(=N)N)NC(=O)[C@H](CC(C)C)NC(=O)[C@H](Cc1ccccc1)NC(=O)[C@H](CO)NC(=O)[C@H](C)NC(=O)[C@H](CC(C)C)NC(=O)[C@H](CCCNC(=N)N)NC(=O)[C@H](CCC(N)=O)NC(=O)[C@@H](NC(=O)[C@H](C)NC(=O)[C@@H]1CSSC[C@H](NC(=O)[C@@H](N)CCCCNC(=O)COCCOCCNC(=O)CC[C@H](NC(=O)CCCCCCCCCCCCCCCCCCC(=O)O)C(=O)O)C(=O)N[C@@H](CC(N)=O)C(=O)N[C@@H]([C@@H](C)O)C(=O)N[C@@H](C)C(=O)N[C@@H]([C@@H](C)O)C(=O)N1)[C@@H](C)O)C(=O)N1CCC[C@H]1C(=O)N[C@@H](CO)C(=O)N[C@@H](CO)C(=O)N[C@H](C(=O)N1CCC[C@H]1C(=O)N[C@H](C(=O)NCC(=O)N[C@@H](CO)C(=O)N[C@@H](CC(N)=O)C(=O)N[C@H](C(=O)N[C@@H](Cc1ccc(O)cc1)C(N)=O)[C@@H](C)O)C(C)C)[C@@H](C)O
notes: also called compound 73
B3: N^ε1-[2-[2-[2-[[(4S)-4-carboxy-4-(19-carboxynonadecanoylamino)butanoyl]amino]ethoxy]ethoxy]acetyl]-[Thr14,Arg17,Pro21,Pro27,Pro31]-h-amylin (peptide)
peptide: K([AEEA-γGlu-C20 diacid])CNTATCATQRLATFLRHSSPNFGAIPSSTPVGSNTY-NH2
modifications: disulfide 2-7; N-terminus assumed
SMILES: CC[C@H](C)[C@H](NC(=O)[C@H](C)NC(=O)CNC(=O)[C@H](Cc1ccccc1)NC(=O)[C@H](CC(N)=O)NC(=O)[C@@H]1CCCN1C(=O)[C@H](CO)NC(=O)[C@H](CO)NC(=O)[C@H](Cc1c[nH]cn1)NC(=O)[C@H](CCCNC(=N)N)NC(=O)[C@H](CC(C)C)NC(=O)[C@H](Cc1ccccc1)NC(=O)[C@@H](NC(=O)[C@H](C)NC(=O)[C@H](CC(C)C)NC(=O)[C@H](CCCNC(=N)N)NC(=O)[C@H](CCC(N)=O)NC(=O)[C@@H](NC(=O)[C@H](C)NC(=O)[C@@H]1CSSC[C@H](NC(=O)[C@@H](N)CCCCNC(=O)COCCOCCNC(=O)CC[C@H](NC(=O)CCCCCCCCCCCCCCCCCCC(=O)O)C(=O)O)C(=O)N[C@@H](CC(N)=O)C(=O)N[C@@H]([C@@H](C)O)C(=O)N[C@@H](C)C(=O)N[C@@H]([C@@H](C)O)C(=O)N1)[C@@H](C)O)[C@@H](C)O)C(=O)N1CCC[C@H]1C(=O)N[C@@H](CO)C(=O)N[C@@H](CO)C(=O)N[C@H](C(=O)N1CCC[C@H]1C(=O)N[C@H](C(=O)NCC(=O)N[C@@H](CO)C(=O)N[C@@H](CC(N)=O)C(=O)N[C@H](C(=O)N[C@@H](Cc1ccc(O)cc1)C(N)=O)[C@@H](C)O)C(C)C)[C@@H](C)O
notes: also called compound 75
B4: N^ε1-[(4S)-4-carboxy-4-(19-carboxynonadecanoylamino)butanoyl]-[Ala14,Arg17,Pro21,Pro27,His34]-h-amylin (peptide)
peptide: K([γGlu-C20 diacid])CNTATCATQRLAAFLRHSSPNFGAIPSSTNVGHNTY-NH2
modifications: disulfide 2-7; N-terminus assumed
SMILES: CC[C@H](C)[C@H](NC(=O)[C@H](C)NC(=O)CNC(=O)[C@H](Cc1ccccc1)NC(=O)[C@H](CC(N)=O)NC(=O)[C@@H]1CCCN1C(=O)[C@H](CO)NC(=O)[C@H](CO)NC(=O)[C@H](Cc1c[nH]cn1)NC(=O)[C@H](CCCNC(=N)N)NC(=O)[C@H](CC(C)C)NC(=O)[C@H](Cc1ccccc1)NC(=O)[C@H](C)NC(=O)[C@H](C)NC(=O)[C@H](CC(C)C)NC(=O)[C@H](CCCNC(=N)N)NC(=O)[C@H](CCC(N)=O)NC(=O)[C@@H](NC(=O)[C@H](C)NC(=O)[C@@H]1CSSC[C@H](NC(=O)[C@@H](N)CCCCNC(=O)CC[C@H](NC(=O)CCCCCCCCCCCCCCCCCCC(=O)O)C(=O)O)C(=O)N[C@@H](CC(N)=O)C(=O)N[C@@H]([C@@H](C)O)C(=O)N[C@@H](C)C(=O)N[C@@H]([C@@H](C)O)C(=O)N1)[C@@H](C)O)C(=O)N1CCC[C@H]1C(=O)N[C@@H](CO)C(=O)N[C@@H](CO)C(=O)N[C@H](C(=O)N[C@@H](CC(N)=O)C(=O)N[C@H](C(=O)NCC(=O)N[C@@H](Cc1c[nH]cn1)C(=O)N[C@@H](CC(N)=O)C(=O)N[C@H](C(=O)N[C@@H](Cc1ccc(O)cc1)C(N)=O)[C@@H](C)O)C(C)C)[C@@H](C)O
notes: also called compound 93
B5: N^ε1-[(4S)-4-carboxy-4-(19-carboxynonadecanoylamino)butanoyl]-[Ala14,Arg17,Pro21,Pro27,Pro34]-h-amylin (peptide)
peptide: K([γGlu-C20 diacid])CNTATCATQRLAAFLRHSSPNFGAIPSSTNVGPNTY-NH2
modifications: disulfide 2-7; N-terminus assumed
SMILES: CC[C@H](C)[C@H](NC(=O)[C@H](C)NC(=O)CNC(=O)[C@H](Cc1ccccc1)NC(=O)[C@H](CC(N)=O)NC(=O)[C@@H]1CCCN1C(=O)[C@H](CO)NC(=O)[C@H](CO)NC(=O)[C@H](Cc1c[nH]cn1)NC(=O)[C@H](CCCNC(=N)N)NC(=O)[C@H](CC(C)C)NC(=O)[C@H](Cc1ccccc1)NC(=O)[C@H](C)NC(=O)[C@H](C)NC(=O)[C@H](CC(C)C)NC(=O)[C@H](CCCNC(=N)N)NC(=O)[C@H](CCC(N)=O)NC(=O)[C@@H](NC(=O)[C@H](C)NC(=O)[C@@H]1CSSC[C@H](NC(=O)[C@@H](N)CCCCNC(=O)CC[C@H](NC(=O)CCCCCCCCCCCCCCCCCCC(=O)O)C(=O)O)C(=O)N[C@@H](CC(N)=O)C(=O)N[C@@H]([C@@H](C)O)C(=O)N[C@@H](C)C(=O)N[C@@H]([C@@H](C)O)C(=O)N1)[C@@H](C)O)C(=O)N1CCC[C@H]1C(=O)N[C@@H](CO)C(=O)N[C@@H](CO)C(=O)N[C@H](C(=O)N[C@@H](CC(N)=O)C(=O)N[C@H](C(=O)NCC(=O)N1CCC[C@H]1C(=O)N[C@@H](CC(N)=O)C(=O)N[C@H](C(=O)N[C@@H](Cc1ccc(O)cc1)C(N)=O)[C@@H](C)O)C(C)C)[C@@H](C)O
notes: also called compound 94
B6: N^ε1-[(4S)-4-carboxy-4-(19-carboxynonadecanoylamino)butanoyl]-[Arg14,Arg17,Pro21,Pro27,Pro31]-h-amylin (peptide)
peptide: K([γGlu-C20 diacid])CNTATCATQRLARFLRHSSPNFGAIPSSTPVGSNTY-NH2
modifications: disulfide 2-7; N-terminus assumed
SMILES: CC[C@H](C)[C@H](NC(=O)[C@H](C)NC(=O)CNC(=O)[C@H](Cc1ccccc1)NC(=O)[C@H](CC(N)=O)NC(=O)[C@@H]1CCCN1C(=O)[C@H](CO)NC(=O)[C@H](CO)NC(=O)[C@H](Cc1c[nH]cn1)NC(=O)[C@H](CCCNC(=N)N)NC(=O)[C@H](CC(C)C)NC(=O)[C@H](Cc1ccccc1)NC(=O)[C@H](CCCNC(=N)N)NC(=O)[C@H](C)NC(=O)[C@H](CC(C)C)NC(=O)[C@H](CCCNC(=N)N)NC(=O)[C@H](CCC(N)=O)NC(=O)[C@@H](NC(=O)[C@H](C)NC(=O)[C@@H]1CSSC[C@H](NC(=O)[C@@H](N)CCCCNC(=O)CC[C@H](NC(=O)CCCCCCCCCCCCCCCCCCC(=O)O)C(=O)O)C(=O)N[C@@H](CC(N)=O)C(=O)N[C@@H]([C@@H](C)O)C(=O)N[C@@H](C)C(=O)N[C@@H]([C@@H](C)O)C(=O)N1)[C@@H](C)O)C(=O)N1CCC[C@H]1C(=O)N[C@@H](CO)C(=O)N[C@@H](CO)C(=O)N[C@H](C(=O)N1CCC[C@H]1C(=O)N[C@H](C(=O)NCC(=O)N[C@@H](CO)C(=O)N[C@@H](CC(N)=O)C(=O)N[C@H](C(=O)N[C@@H](Cc1ccc(O)cc1)C(N)=O)[C@@H](C)O)C(C)C)[C@@H](C)O
notes: also called compound 63

target: T1, human calcitonin receptor; assay: IC50 at hCTR divided by IC50 at hAmylin-R (SPA competition assays V and VII)
How it was run: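 Scintillation proximity competition binding on cell membranes at 35 ng/μL with SPA beads, in 50 mM Hepes pH 7.4, 1 mM CaCl2, 5 mM MgCl₂, 0.1% OA, 0.02% Tween20. Incubated 120 min at 25° C with shaking. IC₅₀ from one-site competition fit.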

| Ratio hCT/hAmylin binding | Binder |
| --- | --- |
| 101 | B1 |
| 51.7 | B2 |
| 91.4 | B3 |
| 101 | B4 |
| 46.3 | B5 |
| 157 | B6 |

target: T1, human calcitonin receptor; assay: SPA competition vs 125I-calcitonin, membranes of BHK cells with human calcitonin receptor (Assay VII)
How it was run: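 BHK hCTR membranes 35 ng/μL + SPA beads 0.05 mg/well; buffer 50 mM Hepes pH 7.4, 1 mM CaCl2, 5 mM MgCl₂, 0.1% OA, 0.02% Tween20. 120 min, 25° C., shaking. Scintillation count; IC50 by one-site binding competition.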

| IC50 | Binder |
| --- | --- |
| 79.9 nM | B1 |
| 5.38 nM | B2 |
| 60.9 nM | B3 |
| 17.8 nM | B4 |
| 6.86 nM | B5 |
| 130 nM | B6 |
